Test [1] concerns the target T1, IL-4Rα (target of the affinity engineering of Ab10; form not stated) (UniProt P24394 26-232, limits assumed).
T1 sequence (looked up): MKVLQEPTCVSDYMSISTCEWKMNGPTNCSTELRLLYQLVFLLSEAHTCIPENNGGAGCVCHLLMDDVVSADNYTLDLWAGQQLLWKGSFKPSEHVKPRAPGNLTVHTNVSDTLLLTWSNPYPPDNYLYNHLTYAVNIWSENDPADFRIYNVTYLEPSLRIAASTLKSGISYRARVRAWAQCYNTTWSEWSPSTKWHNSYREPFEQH
Put plainly: affinity during CDR mutagenesis of Ab10 (engineered as a Fab); method and antigen form not stated; order of magnitude only.

For test [2], the target named is T2, human IL-4Rα on cells (human PBMC B cells and CD4+ T cells, Daudi cells, HEK-Blue IL-4/IL-13 cells, myeloid … (human, UniProt P24394 26-825)).
T2 sequence: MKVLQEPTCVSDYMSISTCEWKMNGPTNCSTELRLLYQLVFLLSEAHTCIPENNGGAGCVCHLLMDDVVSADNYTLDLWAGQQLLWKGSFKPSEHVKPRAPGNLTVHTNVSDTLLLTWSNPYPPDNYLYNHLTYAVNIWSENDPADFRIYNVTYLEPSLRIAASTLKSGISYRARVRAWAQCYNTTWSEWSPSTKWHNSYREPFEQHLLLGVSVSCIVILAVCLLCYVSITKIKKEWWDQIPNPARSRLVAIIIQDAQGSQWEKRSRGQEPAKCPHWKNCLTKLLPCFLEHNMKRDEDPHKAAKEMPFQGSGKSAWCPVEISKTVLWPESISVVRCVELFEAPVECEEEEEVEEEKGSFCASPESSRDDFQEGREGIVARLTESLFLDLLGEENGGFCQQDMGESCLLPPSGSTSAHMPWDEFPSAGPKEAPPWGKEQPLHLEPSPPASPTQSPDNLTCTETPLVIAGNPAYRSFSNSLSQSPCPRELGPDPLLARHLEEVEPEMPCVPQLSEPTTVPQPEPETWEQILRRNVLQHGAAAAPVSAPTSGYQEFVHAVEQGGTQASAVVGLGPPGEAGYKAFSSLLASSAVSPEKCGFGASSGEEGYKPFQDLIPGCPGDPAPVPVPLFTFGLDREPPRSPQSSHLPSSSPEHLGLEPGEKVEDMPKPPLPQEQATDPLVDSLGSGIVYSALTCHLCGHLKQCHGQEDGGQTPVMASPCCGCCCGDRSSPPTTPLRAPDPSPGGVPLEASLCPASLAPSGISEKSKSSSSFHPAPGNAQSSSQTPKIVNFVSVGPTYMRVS
Put plainly: cell-based or functional assay.

Test [3] concerns the target T2, human IL-4Rα on cells (human PBMC B …). Put plainly: flow cytometry on human PBMCs, CD20 B cells, Alexa Fluor 647 labelled antibody, percent IL-4Rα positive cells. The procedure:
(§1) Example 3b. Binding to B cells and T cells: Binding of the exemplified anti-human IL-4Rα antibodies to B cells and T cells was tested in a Fluorescence Activated Cell Sorting (FACS) assay. […] Freshly isolated cells PBMCs were resuspended at 2×10⁶ cells/mL and allowed to rest for 15 minutes at room temperature, then plated at 100 μL/well into a round bottom 96-well plate (COSTAR®) and washed with FACS buffer (PBS containing 2% fetal bovine serum from Corning®). Exemplified anti-human IL-4Rα antibodies and the respective control IgG antibodies conjugated to Alexa Fluor® 647 according to manufacturer's protocol (Thermo Fisher Scientific) were added to the wells at 66.67 nM and diluted 4-fold in duplicate. Equivalent volume of 2× antibody cocktail containing: Human TruStain FcX™. FITC anti-human CD3 Antibody, Alexa Fluor® 700 anti-human CD4 Antibody (all from Biolegend®) and CD20 Monoclonal Antibody (2H7), PerCP-Cyanine5.5 (Thermo Fisher Scientific) was then added to the wells. Cells were incubated at 4° C. for 30 minutes, washed twice with FACS buffer and resuspended in a final volume of 100 μL FACS buffer. Viability dye, Sytox™ blue (Thermo Fisher Scientific), was added and the samples were analyzed via a flow cytometer (LSRFortessa™ X-20; BD BIOSCIENCES). Data analysis was performed using FlowJo software and statistical analysis was performed using GraphPad Prism 9. […]
Background: Flow cytometry measures light scatter and fluorescence of single cells or particles in a stream.

Test [4] has the same target. Put plainly: cell-based or functional assay. The source holds these as a separate data set.
For test [5] the target is unchanged. Put plainly: flow cytometry on human PBMCs, CD4-positive T cells, Alexa Fluor 647 labelled antibody, percent IL-4Rα positive cells. The procedure: as §1
Test [6] has as its target T3, human FcγRI (CD64) extracellular domain (human, UniProt P12314 16-292).
T3 construct: extracellular domain
The test can be described thus: SPR (Biacore), antibody captured on protein A, FcγR ECD as analyte, 25 °C. The procedure:
Unreacted sites were blocked with a 7 minute injection of ethanolamine at 10 μL/minute. Injections of 2×10 μL of glycine, pH 1.5, was used to remove any noncovalently associated protein. Running buffer was 1×HBS-EP+(TEKNOVA, P/N H8022). The FcγR extracellular domains (ECDs)-FcγRI (CD64), FcγRIIA_131R, and FcγRIIA_131H (CD32a), FcγRIIIA_158V, FcγRIIIA_158F (CD16a), and FcγRIIb (CD32b) were produced from stable CHO cell expression and purified using IgG Sepharose and size exclusion chromatography. For FcγRI binding, antibodies were diluted to […] in running buffer, and approximately 150 RU of each antibody was captured in FCs 2 through 4 (RU captured). FC1 was the reference FC, therefore no antibody was captured in FC1. […] Duplicate injections of each concentration were injected over all FCs at 40 μL/minute for 120 seconds followed by a 1200 second dissociation phase. Regeneration was performed by injecting 15 μL of 10 mM glycine, pH 1.5, at 30 μL/minute over all FCs. […] The affinity (KD) was calculated using either steady state equilibrium analysis with the Scrubber 2 Biacore Evaluation Software or a “1:1 (Langmuir) binding” model in BIA Evaluation. […] The affinity (KD) was calculated using the steady state equilibrium analysis with the Scrubber 2 Biacore Evaluation Software. […]

For test [7], the target named is T4, human FcγRIIb (CD32b) extracellular domain (human, UniProt P31994 43-217).
T4 construct: extracellular domain
T4 sequence (looked up): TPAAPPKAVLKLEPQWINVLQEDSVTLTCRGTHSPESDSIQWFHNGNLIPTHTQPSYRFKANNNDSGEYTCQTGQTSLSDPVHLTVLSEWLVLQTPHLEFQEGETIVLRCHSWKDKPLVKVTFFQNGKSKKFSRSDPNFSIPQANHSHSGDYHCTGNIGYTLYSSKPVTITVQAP
The test can be described thus: SPR (Biacore), antibody captured on protein A, FcγR ECD as analyte, steady state, 25 °C. The procedure:
(§2) Unreacted sites were blocked with a 7 minute injection of ethanolamine at 10 μL/minute. Injections of 2×10 μL of glycine, pH 1.5, was used to remove any noncovalently associated protein. Running buffer was 1×HBS-EP+(TEKNOVA, P/N H8022). The FcγR extracellular domains (ECDs)-FcγRI (CD64), FcγRIIA_131R, and FcγRIIA_131H (CD32a), FcγRIIIA_158V, FcγRIIIA_158F (CD16a), and FcγRIIb (CD32b) were produced from stable CHO cell expression and purified using IgG Sepharose and size exclusion chromatography. For FcγRI binding, antibodies were diluted to […] in running buffer, and approximately 150 RU of each antibody was captured in FCs 2 through 4 (RU captured). FC1 was the reference FC, therefore no antibody was captured in FC1. […] Duplicate injections of each concentration were injected over all FCs at 40 μL/minute for 120 seconds followed by a 1200 second dissociation phase. Regeneration was performed by injecting 15 μL of 10 mM glycine, pH 1.5, at 30 μL/minute over all FCs. Reference-subtracted data was collected as FC2 FC1, FC3-FC1, and FC4-FC1 and the measurements were obtained at 25° C. The affinity (KD) was calculated using either steady state equilibrium analysis with the Scrubber 2 Biacore Evaluation Software or a “1:1 (Langmuir) binding” model in BIA Evaluation. For FcγRIIa, FcγRIIb, and FcγRIIIa binding, antibodies were diluted to 5 μg/mL in running buffer, and approximately 500 RU of each antibody was captured in FCs 2 through 4). FC1 was the reference FC. […] Duplicate injections of each concentration were injected over all FCs at 40 μL/minute for 60 seconds followed by a 120 second dissociation phase. Regeneration was performed by injecting 15 μL of 10 mM glycine, pH 1.5, at 30 μL/minute over all FCs. Reference-subtracted data was collected as FC2-FC1, FC3-FC1, and FC4-FC1, and the measurements were obtained at 25° C. The affinity (KD) was calculated using the steady state equilibrium analysis with the Scrubber 2 Biacore Evaluation Software. Each receptor was assayed at least two times.
(SPR reads the build-up and loss of mass on a sensor chip optically.)

Test [8] addresses T5, human FcγRIIA_131H (CD32a) extracellular domain (human, UniProt P12318 34-217).
T5 construct: extracellular domain
T5 sequence (looked up): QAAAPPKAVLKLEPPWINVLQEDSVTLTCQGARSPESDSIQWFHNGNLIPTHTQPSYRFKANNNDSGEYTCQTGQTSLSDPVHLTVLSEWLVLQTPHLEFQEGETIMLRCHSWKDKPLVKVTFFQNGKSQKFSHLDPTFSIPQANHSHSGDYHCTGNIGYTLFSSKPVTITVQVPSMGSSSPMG
The description is as above. The procedure: as §2

For test [9], the target named is T2, human IL-4Rα on cells (human PBMC B …). The test can be described thus: flow cytometry on human PBMCs, B cells, Alexa Fluor 647 labelled antibody. The procedure: as §1

Here are results for 2 molecules from US20240100176A1 (Eli Lilly, published 2024).

T3 sequence (P12314 16-292): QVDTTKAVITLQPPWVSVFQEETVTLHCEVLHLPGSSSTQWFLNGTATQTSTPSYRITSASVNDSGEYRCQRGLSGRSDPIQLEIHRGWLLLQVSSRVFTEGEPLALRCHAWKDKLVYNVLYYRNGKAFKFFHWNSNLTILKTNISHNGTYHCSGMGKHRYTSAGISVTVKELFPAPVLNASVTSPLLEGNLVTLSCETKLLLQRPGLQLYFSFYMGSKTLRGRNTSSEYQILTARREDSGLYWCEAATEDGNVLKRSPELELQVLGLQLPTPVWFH

B1: Ab10 variant with the LCDR3 substitutions H91W, N92S (antibody, V domains shown)
VH: QVQLVESGGGLVQPGGSLRLSCAASGFTFSISSMNWVRQAPGKGLEWVSYISRATGAIYYADSVKGRFTISRNNAKNSLYLQMNSLRDEDTAVYYCAREPVFDYWGQGTLVTVSS
VL: DIQMTQSPSAMSASVGDRVTITCRASQGISNYLAWFQQKPGKVPTRLIYAASSLQSGVPSRFSGSGSGTEFTLTISSLQPEDFATYYCLQWSSYPRTFGQGTKVEIK
notes: also called the resulting antibody
A word on the Kd: it is the equilibrium constant for the complex coming apart. Low values mean higher affinity, high ones lower affinity. Molecule B1 showed a Kd in [1] of around 0.01 nM.

B2: anti-human IL-4Rα antibody Ab7 (antibody, human IgG1, kappa)
heavy: not shown
light: DIQMTQSPSAMSASVGDRVTITCRASQDISNYLAWFQQKPGKVPTRLIYAASSLQSGVPSRFSGSGSGTEFTLTISSLQPEDFATYYCLQWSSYPRTFGQGTKVEIKRTVAAPSVFIFPPSDEQLKSGTASVVCLLNNFYPREAKVQWKVDNALQSGNSQESVTEQDSKDSTYSLSSTLTLSKADYEKHKVYACEVTHQGLSSPVTKSFNRGEC
notes: Human IgG1 backbone
The EC50 is the midpoint of the concentration-response curve. Read a low EC50 as an effect from little substance. B2: in [2], the “IL-4 IC50 (nM): inhibition of IL-4 induced SEAP activity in HEK-Blue IL-4R and IL-13R expressing cells” value turned out to be 0.07 nM. Also, the “IL-13 IC50 (nM): inhibition of IL-13 induced SEAP activity in HEK-Blue IL-4R and IL-13R expressing cells” value in test [2] was 0.51 nM. Besides, the EC50 in [3] was 0.14 nM; in [5] it was 28.7 nM; in test [9] it was 0.27 nM. Besides, in test [4], the “Inhibition of IL-4 induced B cell proliferation, IC50” value was 0.95 nM. Besides, the Kd in test [6] turned out to be 0.0428 nM; in test [7] it was 3020 nM; in test [8], 1240 nM.
